According to article PMC12714728 (npj Viruses, 2025):
Starred links: 1 amine or outer side, 2 acyl side, 3 side chain; linkers in the order of their positions; H or OH if unused. Positions of bridges follow the written chain, without caps; N, C: chain ends. No end group written: not given here. Suc = O=C(CCC(=O)[*:2])[*:1]

B1: cyclic peptide CP8 (peptide)
peptide: CLYRDPLGVAGGMGC
modifications: not fully specified (bridges); cysteine pairing not given here
notes: source: synthetic peptide (manual solid phase Fmoc chemistry, iodine oxidation, RP-HPLC)
B2: cyclic peptide CP14 (peptide)
peptide: LYEDPLGVAGGMG
modifications: head-to-tail lactam cyclized (no template)
notes: source: synthetic peptide (manual solid phase Fmoc chemistry, RP-HPLC)
B3: linear peptide LP1 (peptide)
peptide: Suc-VSLYRDPLGVAGGMGVY-NH2
notes: as for B2
B4: cyclic peptide CP11 (peptide)
peptide: CYRDPLGVAGGMC
modifications: disulfide 1-13
notes: as for B1

Target: T1, hemagglutinin (HA) ectodomain of A/New Caledonia/20/1999 (H1N1) (influenza A virus A/New …, biotin on the BirA site)
Test: AlphaScreen or HTRF
Settings: both partners purified

**Q.** Which IC50 does the source give for B1 here?
**A.** 0.16 µM

**Q.** For CYEDPLGVAGGMC (not fully specified; cysteine pairing not given here) [cyclic peptide CP12], which IC50 is on record?
**A.** 4.95 µM

**Q.** For B2, which IC50 is on record?
**A.** 1.24 µM

**Q.** With B3 as the binder, how does the IC50 read?
**A.** 22.9 µM

**Q.** Which IC50 does the source give for B4 here?
**A.** 4.99 µM

**Q.** CYRDPLGVAGEMC (not fully specified; cysteine pairing not given here) [cyclic peptide CP13] was tested. Which IC50 did it give?
**A.** 12.8 µM

Target: T1, hemagglutinin (HA) ectodomain of A/New …
Test: cell-based or functional assay
Settings: not given

**Q.** With B1 as the binder, how does the “virus neutralization assay (VNA) EC50, H1/NCa virus” value (from here on “virus neutralization assay”) read?
**A.** 0.28 µM

**Q.** How did the “virus neutralization assay” value turn out when CYEDPLGVAGGMC (not fully specified; cysteine pairing not given here) [cyclic peptide CP12] was run?
**A.** 58.3 µM

**Q.** Which “virus neutralization assay” value does the source give for B2 here?
**A.** 45.3 µM
